Laboratory results reported in CN111647079A (UNIV BEIBU GULF, dated 2020).

What was measured:
[1] = molecular target: NCOV-SARI-N-his (真核表达N蛋白) (SARS-CoV-2, UniProt P0DTC9 1-419)
[2] = molecular target: T1, 2019-NCOV Nucleocapsid (原核表达N蛋白) (SARS-CoV-2, UniProt P0DTC9 1-419)
[3] = molecular target: T1, 2019-NCOV Nucleocapsid (原核表达N蛋白); test: BLI (Fortebio BLItz), […], global fit

B1: Fab 20抗体 (抗新型冠状病毒N蛋白的中和抗体) (Fab, V domains shown)
VH: VQLLEQSGAEVKKPGSSVKVSCKASGGTFSSYAISWVRQAPGQGLEWMGGTIPIFGTANYAQKFQGRVTITADESTSTAYMELSSLRSEDTAVYYCARGGWSSSAGGYYGMDVWGQGTTVTVSS
VL: not shown
notes: also called HFab20/LFab20
B1 showed an EC50 [1] of 4.75 µg/mL, an EC50 [2] of 3.98 µg/mL and a Kd [3] of 111 nM.
